# Positions count from the first letter of the chain named. Names may count otherwise.
# B1: IL-18 variant SEQ ID NO: 30 with 5 kDa PEG (E6K, V11I, C38A, K53A, T63A, C76A, C127A, C68-5kPEG) (ligand)
# chain: YFGKLKSKLSIIRNLNDQVLFIDQGNRPLFEDMTDSDARDNAPRTIFIISMYADSQPRGMAVAISVKCEKISTLSAENKIISFKEMNPPDNIKDTKSDIIFFQRSVPGHDNKMQFESSSYEGYFLAAEKERDLFKLILKKEDELGDRSIMFTVQNED
# modifications: 5 kDa PEG on Cys 68 (C68-5kPEG)
# notes: also called 30 + PEG5
# B2: IL-18 variant SEQ ID NO: 57 with 30 kDa PEG (E6K, C38S, K53A, C68-30kDPEG) (ligand)
# chain: B1 chain with I11V, A38S, A63T, A76C, A127C
# modifications: 30 kDa PEG on Cys 68 (C68-30kDPEG)
# notes: also called 57 + PEG30; 57 + PEG
# B3: IL-18 variant SEQ ID NO: 30 with 20 kDa PEG (E6K, V11I, C38A, K53A, T63A, C76A, C127A, C68-20kPEG) (ligand)
# chain: B1 chain
# modifications: 20 kDa PEG on Cys 68 (C68-20kPEG)
# notes: also called 30 + PEG20
# B4: IL-18 variant SEQ ID NO: 59 with 30 kDa PEG (E6K, C38A, K53A, C68-30kDPEG) (ligand)
# chain: B1 chain with I11V, A63T, A76C, A127C
# modifications: 30 kDa PEG on Cys 68 (C68-30kDPEG)
# notes: also called 59 + PEG30; 59 + PEG
# B5: IL-18 variant SEQ ID NO: 60 with 30 kDa PEG (E6K, C38Q, K53A, C68-30kPEG) (ligand)
# chain: B1 chain with I11V, A38Q, A63T, A76C, A127C
# modifications: 30 kDa PEG on Cys 68 (C68-30kPEG)
# notes: also called 60 + PEG
# B6: IL-18 variant SEQ ID NO: 30 with 10 kDa PEG (E6K, V11I, C38A, K53A, T63A, C76A, C127A, C68-10kPEG) (ligand)
# chain: B1 chain
# modifications: 10 kDa PEG on Cys 68 (C68-10kPEG)
# notes: also called 30 + PEG10
# B7: IL-18 variant SEQ ID NO: 219 (V11I, C38A, K53A, C76A, G108A, C127A) (ligand)
# chain: B1 chain with K6E, A63T, G108A
# B8: IL-18 variant SEQ ID NO: 222 (K8R, V11I, C38A, C76A, Q103E, C127A) (ligand)
# chain: B1 chain with K6E, K8R, A53K, A63T, Q103E
# B9: IL-18 variant SEQ ID NO: 223 (K8E, V11I, C38A, C76A, Q103R, C127A) (ligand)
# chain: B1 chain with K6E, K8E, A53K, A63T, Q103R
# B10: IL-18 variant SEQ ID NO: 238 (E6K, V11I, C38A, K53A, T63A, C76A, C127A, V153Y) (ligand)
# chain: B1 chain with V153Y
# B11: IL-18 variant SEQ ID NO: 232 (E6K, V11I, C38A, I49M, K53A, T63A, C76A, C127A) (ligand)
# chain: B1 chain with I49M
# B12: IL-18 variant SEQ ID NO: 221 (V11I, C38A, K53A, C76A, D110A, C127A) (ligand)
# chain: B1 chain with K6E, A63T, D110A
# B13: IL-18 variant SEQ ID NO: 233 (E6K, V11I, C38A, I49R, K53A, T63A, C76A, C127A) (ligand)
# chain: B1 chain with I49R
# B14: IL-18 variant SEQ ID NO: 226 (V11I, C38A, S55R, C76A, C127A) (ligand)
# chain: B1 chain with K6E, A53K, S55R, A63T
# B15: IL-18 variant SEQ ID NO: 228 (V11I, C38A, C76A, S105I, C127A) (ligand)
# chain: B1 chain with K6E, A53K, A63T, S105I
# B16: IL-18 variant SEQ ID NO: 229 (V11I, C38A, C76A, S105K, C127A) (ligand)
# chain: B1 chain with K6E, A53K, A63T, S105K
# B17: IL-18 variant SEQ ID NO: 235 (E6K, K8E, V11I, C38A, K53A, T63A, C76A, Q103R, C127A) (ligand)
# chain: B1 chain with K8E, Q103R
# B18: IL-18 variant SEQ ID NO: 218 (V11I, C38A, K53A, C76A, C127A, D132A) (ligand)
# chain: B1 chain with K6E, A63T, D132A
# B19: IL-18 variant SEQ ID NO: 230 (K8L, E6K, V11I, C38A, K53A, T63A, C76A, C127A) (ligand)
# chain: B1 chain with K8L
# B20: IL-18 variant SEQ ID NO: 237 (E6K, V11I, C38A, K53A, T63A, C76A, C127A, V153E) (ligand)
# chain: B1 chain with V153E
# B21: IL-18 variant SEQ ID NO: 234 (E6K, V11I, C38A, K53A, T63A, C76A, Q103R, C127A) (ligand)
# chain: B1 chain with Q103R
# B22: IL-18 variant SEQ ID NO: 227 (V11I, C38A, S55T, C76A, C127A) (ligand)
# chain: B1 chain with K6E, A53K, S55T, A63T
# B23: IL-18 variant SEQ ID NO: 225 (V11I, C38A, S55H, C76A, C127A) (ligand)
# chain: B1 chain with K6E, A53K, S55H, A63T
# B24: IL-18 variant SEQ ID NO: 220 (V11I, C38A, K53A, C76A, H109A, C127A) (ligand)
# chain: B1 chain with K6E, A63T, H109A
# B25: IL-18 variant SEQ ID NO: 224 (V11I, C38A, C76A, Q103K, C127A) (ligand)
# chain: B1 chain with K6E, A53K, A63T, Q103K
# Target: T1, IL-18Rα/β heterodimer (Fc fused human IL-18Rα mixed with Fc fused human IL-18Rβ) (human, UniProt Q13478 19-329; O95256 20-356, limits assumed)
# T1 construct: Alpha and beta Fc fusions were mixed and pre-incubated for 30 min before capture on anti-human IgG; also called alpha/beta heterodimer IL-18 receptor; heterodimeric human IL-18 receptor alpha (CD218a) and IL-18R accessory protein (IL-18RAP/CDw218b); not shown: Fc
# T1 sequence (looked up) 1: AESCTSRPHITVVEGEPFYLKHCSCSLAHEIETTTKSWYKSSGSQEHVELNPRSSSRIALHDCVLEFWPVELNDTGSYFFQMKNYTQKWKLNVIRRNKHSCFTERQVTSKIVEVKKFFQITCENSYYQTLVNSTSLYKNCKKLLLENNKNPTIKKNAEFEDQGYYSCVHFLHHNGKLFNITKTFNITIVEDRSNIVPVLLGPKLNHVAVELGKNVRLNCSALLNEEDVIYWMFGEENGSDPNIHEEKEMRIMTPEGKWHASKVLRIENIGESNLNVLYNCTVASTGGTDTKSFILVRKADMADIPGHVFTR
# T1 sequence (looked up) 2: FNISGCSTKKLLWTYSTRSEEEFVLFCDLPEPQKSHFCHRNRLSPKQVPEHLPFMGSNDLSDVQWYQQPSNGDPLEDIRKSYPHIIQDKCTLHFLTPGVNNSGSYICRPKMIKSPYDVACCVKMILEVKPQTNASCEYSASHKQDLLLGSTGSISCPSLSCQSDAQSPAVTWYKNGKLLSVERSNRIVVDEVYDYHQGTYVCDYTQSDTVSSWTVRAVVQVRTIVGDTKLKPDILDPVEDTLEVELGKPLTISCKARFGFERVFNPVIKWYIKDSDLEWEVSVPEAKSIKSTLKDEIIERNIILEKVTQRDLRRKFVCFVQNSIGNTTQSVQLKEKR
# Experiment: SPR, Fc-IL-18Rα/β captured, heterogeneous ligand fit
# Experimental: (§1) The interaction of the wild type and of modified IL-18 polypeptides with human IL-18 receptor subunits are measured with Surface Plasmon Resonance (SPR) technology. Anti-human IgG antibodies are bound by amine coupling onto a CM5 chip to capture 6 µg/mL of Fc fused human IL-18Rα, […] of Fc fused human IL-18Rβ, or […] of Fc fused human IL-18BP isoform a (IL-18BPa) for 30 min before capture. In other settings, […] of alpha and beta IL-18 receptors are mixed and pre-incubated for 30 min before capture of the alpha/beta heterodimer IL-18 receptor.
# (§2) The kinetic binding of the IL-18 analytes are measured with a Biacore 8K instrument in two fold serial dilutions starting at […] down to 0.98 nM. Regeneration of the surface back to amine coupled anti IgG antibody is done after every concentration of analyte. To measure the protein association to the receptors, the samples are injected with a flow rate of […] for 60 s, followed by 300 s buffer only to detect the dissociation. The used running buffer is 1×PBS with 0.05% Tween20. The relative response units (RU, Y-axis) are plotted against time (s, X-axis) and analyzed in a kinetic 1:1 binding model for the monomer receptor binding and for the binding to the IL-18BP. A kinetic heterogenous ligand fit model is applied for the alpha/beta heterodimer binding.
Binder,Kd,koff,kon
B1,2.2 nM,0.000594 s⁻¹,269000 M⁻¹ s⁻¹
B2,23 nM,0.000787 s⁻¹,33800 M⁻¹ s⁻¹
B3,5.49 nM,0.000637 s⁻¹,116000 M⁻¹ s⁻¹
B4,8.02 nM,0.00058 s⁻¹,84500 M⁻¹ s⁻¹
B5,13.3 nM,0.000789 s⁻¹,68300 M⁻¹ s⁻¹
B6,8.7 nM,0.00105 s⁻¹,120000 M⁻¹ s⁻¹

# Target: T2, IL-18 receptor (IL-18R) on HEK-Blue IL18R reporter cells (UniProt Q13478 19-541; O95256 20-599, limits assumed)
# T2 sequence (looked up) 1: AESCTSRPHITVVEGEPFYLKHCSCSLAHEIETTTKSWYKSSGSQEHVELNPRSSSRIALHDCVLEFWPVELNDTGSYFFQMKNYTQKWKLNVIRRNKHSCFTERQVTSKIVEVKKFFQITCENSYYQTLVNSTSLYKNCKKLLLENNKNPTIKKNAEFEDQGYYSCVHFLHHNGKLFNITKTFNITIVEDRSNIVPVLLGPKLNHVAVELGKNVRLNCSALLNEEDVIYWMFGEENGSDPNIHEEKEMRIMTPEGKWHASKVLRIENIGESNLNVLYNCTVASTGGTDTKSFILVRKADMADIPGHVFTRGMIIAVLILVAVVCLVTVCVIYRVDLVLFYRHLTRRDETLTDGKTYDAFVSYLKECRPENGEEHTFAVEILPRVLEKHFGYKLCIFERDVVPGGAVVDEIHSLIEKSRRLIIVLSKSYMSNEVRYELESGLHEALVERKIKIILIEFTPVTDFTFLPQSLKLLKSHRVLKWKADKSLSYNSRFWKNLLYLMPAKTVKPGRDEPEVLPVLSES
# T2 sequence (looked up) 2: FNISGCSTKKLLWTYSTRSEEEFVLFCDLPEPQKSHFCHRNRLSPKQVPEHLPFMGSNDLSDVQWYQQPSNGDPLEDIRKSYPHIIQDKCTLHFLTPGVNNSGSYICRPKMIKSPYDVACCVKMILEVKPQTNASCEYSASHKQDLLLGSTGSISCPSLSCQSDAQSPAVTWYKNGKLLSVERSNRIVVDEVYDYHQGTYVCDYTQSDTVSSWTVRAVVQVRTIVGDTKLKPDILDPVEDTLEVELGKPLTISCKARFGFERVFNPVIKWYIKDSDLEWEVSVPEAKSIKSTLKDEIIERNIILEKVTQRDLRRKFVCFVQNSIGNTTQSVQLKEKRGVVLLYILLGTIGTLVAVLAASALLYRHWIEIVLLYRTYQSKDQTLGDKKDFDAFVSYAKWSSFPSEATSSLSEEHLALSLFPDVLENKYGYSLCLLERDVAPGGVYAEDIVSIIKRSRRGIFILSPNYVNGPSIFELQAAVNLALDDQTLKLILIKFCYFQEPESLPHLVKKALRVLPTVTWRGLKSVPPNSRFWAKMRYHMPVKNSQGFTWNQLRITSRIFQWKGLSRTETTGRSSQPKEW
# Experiment: cell-based or functional assay
row,Binder,"EC50, HEK-Blue IL18R reporter"
1,B7,15.6 nM
2,B8,2.01 nM
3,B9,2.3 nM
4,B10,0.08 nM
5,B11,0.07 nM
6,B12,2.02 nM
7,B13,0.04 nM
8,B14,1.91 nM
9,B15,5.37 nM
10,B16,7.73 nM
11,B17,0.4 nM
12,B18,1.95 nM
13,B19,0.29 nM
14,B20,0.1 nM
15,B21,0.26 nM
16,B22,4.73 nM
17,B23,3.14 nM
18,B24,19.5 nM
19,B25,1.5 nM

# Target: T3, Fc fused human IL-18Rα (human, UniProt Q13478 19-329, limits assumed)
# T3 construct: also called IL-18Rα monomer; human IL-18 receptor alpha (CD218a); not shown: Fc
# T3 sequence (looked up): T1 sequence (looked up) 1
# Experiment: SPR, Fc-IL-18Rα captured, 1:1 fit
# Experimental: as §1, §2
Binder,Kd,koff,kon
B1,158 nM,0.0748 s⁻¹,475000 M⁻¹ s⁻¹
B2,701 nM,0.0267 s⁻¹,37900 M⁻¹ s⁻¹
B3,379 nM,0.0805 s⁻¹,213000 M⁻¹ s⁻¹
B4,352 nM,0.0264 s⁻¹,74600 M⁻¹ s⁻¹
B5,345 nM,0.0195 s⁻¹,66300 M⁻¹ s⁻¹
B6,239 nM,0.0779 s⁻¹,326000 M⁻¹ s⁻¹
